Values quoted from earlier work in article PMC3726680.

Molecular target: HER2 (Homo sapiens) (UniProt P04626)

trastuzumab
Kd: 0.1 nM
